Assay results published in publication PMC9504416, “Functional Characterization of an Arabidopsis Profilin Protein as a Molecular Chaperone under Heat Shock Stress” (Molecules, 2022).

Biological target: the molecule itself
Assay: native gel or EMSA; 10% native PAGE with silver staining; concentration-dependent aliquots of recombinant protein, incubated at 25 °C for 30 min and centrifuged at 13,000 x g for 15 min

B1: Arabidopsis thaliana profilin-2 (AtPFN2), recombinant (natural protein, UniProt Q42418 1-131, looked up)
chain: MSWQSYVDDHLMCEVEGNHLTHAAIFGQDGSVWAQSSAFPQLKPAEIAGINKDFEEAGHLAPTGLFLGGEKYMVVQGEAGAVIRGKKGPGGVTIKKTTQALVFGIYDEPMTGGQCNLVVERLGDYLIESGL
notes: Profilin-2 (AtPFN2) of Arabidopsis thaliana, amplified by PCR from an A. thaliana cDNA library; single band of 14 kDa on SDS-PAGE; Homo-oligomer of various sizes; The vector pET28(a) probably adds the His tag; no removal of the tag is told; also called Arabidopsis PFN2; source: E. coli BL21 (DE3), pET28(a), purified (HisPur cobalt resin, imidazole elution; SEC)
  binding result: binds
